Data taken from publication doi:10.1101/2024.04.12.589225.

Legend:
[1] = molecular target: 8th_AtGDH-A216Q (Aspergillus terreus); assay: SEC
[2] = molecular target: Aspergillus terreus glutamate dehydrogenase, wild type (Aspergillus terreus); assay: cryo-EM structure
[3] = molecular target: Aspergillus terreus glutamate dehydrogenase, wild type (Aspergillus terreus); assay: crystal structure
[4] = molecular target: 7th_AtGDH-R246S (Aspergillus terreus); assay: SEC
[5] = molecular target: 7th_AtGDH-R246S (Aspergillus terreus); assay: crystal structure
[6] = molecular target: AnGDH-S246R (Aspergillus niger); assay: SEC
[7] = molecular target: Aspergillus niger glutamate dehydrogenase, wild type (Aspergillus niger); assay: cryo-EM structure
[8] = molecular target: AnGDH-Q216A (Aspergillus niger); assay: SEC
[9] = molecular target: 2nd_AtGDH-ΔT262-A263 (Aspergillus terreus); assay: SEC
[10] = molecular target: 2nd_AtGDH-ΔT262-A263 (Aspergillus terreus); assay: crystal structure

## 8th_AtGDH-A216Q (enzyme)
[1]
  stoichiometry N: 6

## Aspergillus terreus glutamate dehydrogenase, wild type (enzyme)
[2]
  stoichiometry N: 6
[3]
  stoichiometry N: 6

## 7th_AtGDH-R246S (enzyme)
[4]
  stoichiometry N: 6
[5]
  stoichiometry N: 6

## AnGDH-S246R (enzyme)
[6]
  stoichiometry N: 6

## Aspergillus niger glutamate dehydrogenase, wild type (enzyme)
[7]
  stoichiometry N: 6

## AnGDH-Q216A (enzyme)
[8]
  stoichiometry N: 6

## 2nd_AtGDH-ΔT262-A263 (enzyme)
[9]
  stoichiometry N: 6
[10]
  stoichiometry N: 6
